The values below come from publication doi:10.1101/2021.03.22.436447 (bioRxiv, 2021).

The assay addresses T1, spectacled caiman hemoglobin beta-type chain (Caiman crocodilus (endogenous in red …, UniProt P02131 1-146)).
T1 sequence (looked up): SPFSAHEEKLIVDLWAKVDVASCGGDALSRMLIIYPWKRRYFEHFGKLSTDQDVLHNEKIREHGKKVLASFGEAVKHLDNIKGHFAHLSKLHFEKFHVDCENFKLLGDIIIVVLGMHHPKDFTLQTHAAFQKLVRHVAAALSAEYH
As to the kind of experiment: SEC. On the technique in general: SEC sorts molecules by how far they enter the pores of the column.

B1: spectacled caiman hemoglobin alpha-type chain (natural protein)
chain: not shown
For the molecule B1, the binding result is “binds”.
